For experiment [1], the target named is endogenous c-kit of COS-1 cells (cells transfected with V19.8 alone). As to the kind of experiment: 1.6 nM human 125I-SCF^1-164 on membrane fractions of COS-1 cells transfected with V19.8 alone.
Experiment [2] addresses human recombinant c-kit ligand binding plus transmembrane domains (hckit-LT1) expressed in COS-1 cells (human) (UniProt P10721). As to the kind of experiment: 1.6 nM human 125I-SCF^1-164 on membrane fractions of COS-1 cells transfected with V19.8:hckit-LT1.
For experiment [3], the target named is endogenous c-kit of COS-1 cells (cells transfected with V19.8 alone). As to the kind of experiment: 1.6 nM human 125I-SCF^1-164 + 320 nM unlabelled human SCF^1-164, membranes of COS-1 cells transfected with V19.8 alone.
Experiment [4] concerns the target human recombinant c-kit ligand binding plus transmembrane domains (hckit-LT1) expressed in COS-1 cells (human) (UniProt P10721). The experiment is described as follows: 1.6 nM human 125I-SCF^1-164 + 320 nM unlabelled human SCF^1-164, membranes of COS-1 cells transfected with V19.8:hckit-LT1.
Experiment [5] addresses endogenous c-kit of COS-1 cells (cells transfected with V19.8 alone). As to the kind of experiment: 1.6 nM rat 125I-SCF^1-164 on membrane fractions of COS-1 cells transfected with V19.8 alone.
Experiment [6] deals with human recombinant c-kit ligand binding plus transmembrane domains (hckit-LT1) expressed in COS-1 cells (human) (UniProt P10721). As to the kind of experiment: 1.6 nM rat 125I-SCF^1-164 on membrane fractions of COS-1 cells transfected with V19.8:hckit-LT1.
Experiment [7] concerns the target endogenous c-kit of COS-1 cells (cells transfected with V19.8 alone). The experiment is described as follows: 1.6 nM rat 125I-SCF^1-164 + 320 nM unlabelled rat SCF^1-164, membranes of COS-1 cells transfected with V19.8 alone.
The target of experiment [8] is human recombinant c-kit ligand binding plus transmembrane domains (hckit-LT1) expressed in COS-1 cells (human) (UniProt P10721). As to the kind of experiment: 1.6 nM rat 125I-SCF^1-164 + 320 nM unlabelled rat SCF^1-164, membranes of COS-1 cells transfected with V19.8:hckit-LT1.

As for “human SCF^1-164 (radioiodinated; Examples 13 and 15) (from UniProt P21583 26-189) (ligand)”, the CPM Bound turned out to be 2160 cpm in experiment [1], 59400 cpm in experiment [2], 2150 cpm in experiment [3] and 2380 cpm in experiment [4].

“rat SCF^1-164 (radioiodinated; Example 15) (from UniProt P21581 26-189) (ligand)”: the CPM Bound came to 1100 cpm in experiment [5], 70000 cpm in experiment [6], 550 cpm in experiment [7] and 1100 cpm in experiment [8].

(Values after patent publication US6967029.)
